Data from the supplement of paper PMC9876800.

Tested on: peptide library, one residue held at a place counted from the S/T acceptor
Test: relative phosphorylation of the sub-library (ratio to the mean residue at this position); higher = residue favoured
How it was run: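 Relative sub-library phosphorylation is the ratio of each sub-library's signal to the mean residue at that position. The signal came from phosphorimaging of spots on streptavidin membranes, quantified by densitometry, after purified recombinant kinases reacted with biotinylated degenerate peptide sub-libraries in 384-well plates. Reactions held 50 μM peptide and 50 μM ATP spiked with γ-32P-ATP for 90 min under kinase-specific conditions.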

Chain of TAOK3, construct: Full length with a 14aa C-terminal extension from Gateway cloning, human (Q9H2K8 whole entry, looked up): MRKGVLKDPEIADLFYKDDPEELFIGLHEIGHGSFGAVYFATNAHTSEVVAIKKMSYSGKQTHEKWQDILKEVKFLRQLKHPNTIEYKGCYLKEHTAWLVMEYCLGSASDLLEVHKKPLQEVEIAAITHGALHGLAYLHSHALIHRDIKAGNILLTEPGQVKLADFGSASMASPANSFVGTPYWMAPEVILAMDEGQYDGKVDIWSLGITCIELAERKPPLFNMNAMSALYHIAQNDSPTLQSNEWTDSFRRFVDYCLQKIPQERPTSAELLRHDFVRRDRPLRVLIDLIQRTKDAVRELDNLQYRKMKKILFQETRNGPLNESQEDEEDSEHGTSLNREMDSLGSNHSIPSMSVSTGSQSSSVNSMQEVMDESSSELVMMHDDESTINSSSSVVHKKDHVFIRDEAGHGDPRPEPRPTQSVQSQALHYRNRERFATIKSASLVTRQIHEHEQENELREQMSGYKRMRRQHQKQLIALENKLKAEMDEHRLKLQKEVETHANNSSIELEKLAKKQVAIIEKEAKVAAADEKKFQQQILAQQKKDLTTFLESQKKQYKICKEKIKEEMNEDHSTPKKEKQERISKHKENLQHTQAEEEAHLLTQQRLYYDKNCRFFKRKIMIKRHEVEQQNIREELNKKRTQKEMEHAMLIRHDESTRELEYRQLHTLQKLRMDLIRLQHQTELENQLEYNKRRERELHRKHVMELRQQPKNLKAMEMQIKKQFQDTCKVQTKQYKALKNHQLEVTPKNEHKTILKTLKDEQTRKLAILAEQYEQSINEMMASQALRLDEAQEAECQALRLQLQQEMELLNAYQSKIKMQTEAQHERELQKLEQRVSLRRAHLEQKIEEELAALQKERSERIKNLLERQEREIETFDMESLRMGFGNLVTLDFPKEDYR
Chain of MYLK4, construct: Full length, human (Q86YV6 whole entry, looked up): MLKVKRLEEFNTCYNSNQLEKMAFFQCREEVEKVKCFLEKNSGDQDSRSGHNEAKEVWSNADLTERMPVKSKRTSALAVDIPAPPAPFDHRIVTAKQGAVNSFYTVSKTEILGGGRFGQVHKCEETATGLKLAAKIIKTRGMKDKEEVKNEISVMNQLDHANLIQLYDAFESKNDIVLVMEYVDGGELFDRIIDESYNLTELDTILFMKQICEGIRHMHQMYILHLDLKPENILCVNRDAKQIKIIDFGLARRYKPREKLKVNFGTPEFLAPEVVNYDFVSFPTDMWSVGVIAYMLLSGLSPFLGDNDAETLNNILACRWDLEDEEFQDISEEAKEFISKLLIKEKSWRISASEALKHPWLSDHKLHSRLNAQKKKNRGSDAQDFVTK
Chain of PAK4, construct: aa295-end, human (O96013 295-591, looked up): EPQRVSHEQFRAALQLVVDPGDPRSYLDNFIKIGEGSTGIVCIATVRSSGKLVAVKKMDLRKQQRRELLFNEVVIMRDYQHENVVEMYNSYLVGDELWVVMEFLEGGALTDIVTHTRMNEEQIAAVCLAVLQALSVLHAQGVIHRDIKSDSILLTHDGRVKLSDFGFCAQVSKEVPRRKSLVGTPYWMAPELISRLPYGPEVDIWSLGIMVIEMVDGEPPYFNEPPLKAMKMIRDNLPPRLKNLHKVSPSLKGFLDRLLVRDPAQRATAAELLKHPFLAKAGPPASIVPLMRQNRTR

PAK4, construct: aa295-end, human (from UniProt O96013)
relative phosphorylation
Settings | at +1 | at +2 | at +3 | at +4 | at -1 | at -2 | at -3 | at -4 | at -5
A fixed | 0.553 | 4.9 | 0.88 | 0.922 | 0.732 | 0.279 | 0.735 | 1.12 | 1.3
D fixed | 0.199 | 0.382 | 0.663 | 0.928 | 0.373 | 0.145 | 0.295 | 0.611 | 0.77
E fixed | 0.194 | 0.23 | 0.814 | 0.754 | 0.273 | 0.136 | 0.265 | 0.603 | 0.58
F fixed | 1.3 | 0.849 | 1.81 | 0.823 | 1.06 | 0.445 | 0.54 | 0.844 | 0.852
G fixed | 0.327 | 0.715 | 0.996 | 1.13 | 0.534 | 0.244 | 0.739 | 1.35 | 1.29
H fixed | 0.9 | 0.663 | 1.12 | 1.23 | 1.34 | 0.76 | 0.801 | 1.17 | 1.09
I fixed | 1.79 | 1.14 | 1.36 | 0.8 | 0.563 | 0.284 | 0.415 | 0.655 | 0.727
K fixed | 0.621 | 0.267 | 0.544 | 0.817 | 1.45 | 0.725 | 3.15 | 1.51 | 1.53
L fixed | 1.38 | 0.673 | 1.35 | 0.788 | 1.18 | 0.244 | 0.49 | 0.74 | 0.71
M fixed | 1.96 | 0.588 | 1.1 | 0.877 | 1.38 | 0.334 | 0.599 | 0.913 | 0.714
N fixed | 0.366 | 0.542 | 0.542 | 0.91 | 0.967 | 0.287 | 0.77 | 0.873 | 1
P fixed | 0.215 | 0.667 | 0.797 | 2.16 | 0.251 | 0.634 | 0.684 | 0.868 | 1.03
Q fixed | 0.694 | 0.433 | 0.682 | 1.02 | 1.06 | 0.641 | 0.96 | 0.902 | 0.897
R fixed | 0.964 | 0.297 | 0.615 | 0.983 | 2.76 | 10 | 4.61 | 1.98 | 1.81
V fixed | 1.47 | 2.1 | 1.07 | 0.761 | 0.579 | 0.282 | 0.413 | 0.66 | 0.75
W fixed | 2.49 | 0.806 | 1.45 | 1.21 | 1.19 | 0.417 | 0.876 | 1.27 | 0.987
Y fixed | 1.57 | 1.75 | 1.2 | 0.894 | 1.3 | 1.1 | 0.651 | 0.941 | 0.961
pThr fixed | 0.339 | 0.403 | 0.705 | 1.45 | 0.233 | 0.218 | 0.398 | 0.688 | 0.662
pTyr fixed | 0.514 | 0.767 | 1.34 | 1.19 | 0.261 | 0.232 | 0.402 | 0.579 | 0.65

MYLK4, construct: Full length, human (from UniProt Q86YV6)
relative phosphorylation
Settings | at +1 | at +2 | at +3 | at +4 | at -1 | at -2 | at -3 | at -4 | at -5
A fixed | 0.96 | 0.643 | 0.61 | 0.778 | 0.871 | 0.876 | 0.764 | 1.09 | 0.837
D fixed | 0.566 | 0.833 | 0.854 | 0.974 | 0.639 | 0.272 | 0.32 | 0.437 | 0.41
E fixed | 0.776 | 1.04 | 0.652 | 0.871 | 0.49 | 0.273 | 0.339 | 0.628 | 0.432
F fixed | 1.25 | 1.2 | 1.59 | 1.04 | 0.915 | 0.405 | 0.511 | 0.909 | 1.23
G fixed | 0.814 | 0.588 | 0.715 | 0.858 | 0.533 | 0.468 | 0.544 | 1.01 | 0.735
H fixed | 0.885 | 1.27 | 0.849 | 0.917 | 1.13 | 1.17 | 0.737 | 0.907 | 0.912
I fixed | 1.01 | 1.03 | 1.05 | 1.27 | 0.817 | 0.485 | 0.63 | 1.02 | 1.25
K fixed | 1.28 | 1.39 | 0.718 | 0.807 | 1.8 | 1.76 | 2.19 | 1.89 | 1.65
L fixed | 1.03 | 1.02 | 1.27 | 1.33 | 1.74 | 0.412 | 0.455 | 0.915 | 1.24
M fixed | 1.3 | 0.948 | 1.09 | 0.938 | 1.19 | 0.5 | 0.538 | 0.973 | 1.06
N fixed | 0.921 | 0.946 | 1.01 | 1.05 | 1.34 | 0.588 | 0.498 | 0.826 | 0.694
P fixed | 0.386 | 0.713 | 0.517 | 1.18 | 0.775 | 0.389 | 0.538 | 0.743 | 0.843
Q fixed | 1.27 | 0.949 | 0.659 | 1.04 | 0.889 | 0.725 | 0.631 | 0.925 | 0.749
R fixed | 1.55 | 1.41 | 0.808 | 0.818 | 1.49 | 7.39 | 6.83 | 2.06 | 1.85
V fixed | 0.981 | 1.09 | 0.834 | 0.982 | 0.701 | 0.411 | 0.507 | 1.01 | 1
W fixed | 1.13 | 0.89 | 2.75 | 1.27 | 0.839 | 0.466 | 0.517 | 0.719 | 0.852
Y fixed | 0.888 | 1.04 | 1.04 | 0.883 | 0.848 | 0.416 | 0.449 | 0.936 | 1.26
pThr fixed | 1.88 | 1.98 | 0.701 | 1.09 | 0.794 | 0.666 | 0.917 | 0.92 | 0.692
pTyr fixed | 0.998 | 1.68 | 1.14 | 1.15 | 1.03 | 0.469 | 0.94 | 0.797 | 0.752

TAOK3, construct: Full length with a 14aa C-terminal extension from Gateway cloning, human (from UniProt Q9H2K8)
relative phosphorylation
Settings | at +1 | at +2 | at +3 | at +4 | at -1 | at -2 | at -3 | at -4 | at -5
A fixed | 0.522 | 0.851 | 0.743 | 0.866 | 0.788 | 1.15 | 0.775 | 1.01 | 1.16
D fixed | 0.371 | 0.801 | 0.592 | 0.65 | 0.99 | 1.03 | 0.879 | 1.47 | 1.59
E fixed | 0.343 | 0.54 | 0.547 | 0.658 | 0.546 | 0.718 | 0.916 | 1.54 | 1.36
F fixed | 1.34 | 0.424 | 0.68 | 0.771 | 0.709 | 1.35 | 0.543 | 0.663 | 0.81
G fixed | 0.605 | 0.943 | 1.38 | 1.11 | 2.03 | 1.43 | 1.4 | 1.27 | 1.17
H fixed | 0.973 | 1.21 | 1.19 | 1.18 | 1.28 | 0.92 | 0.95 | 1.04 | 1.09
I fixed | 1.52 | 0.593 | 0.578 | 0.859 | 0.3 | 0.508 | 0.416 | 0.497 | 0.596
K fixed | 0.647 | 2.32 | 2.11 | 1.76 | 1.54 | 0.836 | 2.45 | 1.15 | 1.35
L fixed | 1.63 | 0.507 | 0.707 | 0.681 | 0.717 | 0.526 | 0.445 | 0.536 | 0.627
M fixed | 1.52 | 0.612 | 0.606 | 0.718 | 0.911 | 0.805 | 0.566 | 0.682 | 0.629
N fixed | 0.595 | 1.73 | 1.08 | 0.891 | 1.61 | 1.15 | 1.28 | 1.42 | 1.23
P fixed | 0.551 | 1.09 | 1.14 | 0.945 | 0.707 | 1.17 | 1.23 | 1.38 | 0.984
Q fixed | 0.685 | 0.941 | 0.987 | 1.04 | 1.08 | 0.856 | 1.12 | 1.12 | 0.961
R fixed | 0.583 | 2.5 | 2.29 | 1.62 | 1.37 | 0.959 | 1.73 | 1.11 | 1.13
V fixed | 1.05 | 0.659 | 0.558 | 0.753 | 0.373 | 0.541 | 0.459 | 0.562 | 0.634
W fixed | 2.79 | 0.578 | 0.971 | 1.19 | 0.807 | 0.932 | 0.832 | 0.819 | 0.92
Y fixed | 1.28 | 0.704 | 0.854 | 1.31 | 1.24 | 2.12 | 1 | 0.726 | 0.781
pThr fixed | 0.887 | 0.729 | 0.858 | 0.782 | 0.588 | 1.11 | 1.23 | 1.49 | 1.36
pTyr fixed | 0.719 | 0.757 | 0.752 | 0.848 | 2.28 | 1.3 | 1.18 | 1.33 | 1.47
